Consider 20 sequences from the DeepSol protein solubility set.

The series is described as follows: soluble on expression in E. coli; label from the status in PepcDB or PDB records.
In the case of “MNPKFRSFFSKNAEIFRFSLSENPEIFRFSRHFSMKSFYDIIEIDEIATFDDVKKAYFRFLRKDNRPIYDSWLREQRLRETQGTIGETIELEYGERDVDEYCRKKIPKKNIFSKKKKRFFRTFSNRPNPRHGNLRVLLVLPLSRNPSLLHHHHHPRHPLKKMSSLDESSTKILVLGDSCVGKTSLCHCIAGGGEPPGGGRSFDSTIGATVVMAWHEYRAGTPEQRTELLELWDIGGMVAHRQAAQVFFEGAVGAILVHDLTNKRSEENLATWLTMLDGKPRGAAPKSSKDPAAVALKVDIESCNIPVLIVGTKADLVPHKGPVSYDRYDGLGNANSAISVWKPRNRRKNSKKPMKIGRKLVVEKEKVKKFGRQYLRRGLGFSFSSARWHKEMTEARNVQKSMKMVIFRLFSMGGRN”, the “soluble on expression in E. coli” value was “not soluble”.
As for “MNPQLLRVTNRIIERSRETRSAYLARIEQAKTSTVHRSQLACGNLAHGFAACQPEDKASLKSMLRNNIAIITSYNDMLSAHQPYEHYPEIIRKALHEANAVGQVAGGVPAMCDGVTQGQDGMELSLLSREVIAMSAAVGLSHNMFDGALFLGVCDKIVPGLTMAALSFGHLPAVFVPSGPMASGLPNKEKVRIRQLYAEGKVDRMALLESEAASYHAPGTCTFYGTANTNQMVVEFMGMQLPGSSFVHPDSPLRDALTAAAARQVTRMTGNGNEWMPIGKMIDEKVVVNGIVALLATGGSTNHTMHLVAMARAAGIQINWDDFSDLSDVVPLMARLYPNGPADINHFQAAGGVPVLVRELLKAGLLHEDVNTVAGFGLSRYTLEPWLNNGELDWREGAEKSLDSNVIASFEQPFSHHGGTKVLSGNLGRAVMKTSAVPVENQVIEAPAVVFESQHDVMPAFEAGLLDRDCVVVVRHQGPKANGMPELHKLMPPLGVLLDRCFKIALVTDGRLSGASGKVPSAIHVTPEAYDGGLLAKVRDGDIIRVNGQTGELTLLVDEAELAAREPHIPDLSASRVGTGRELFSALREKLSGAEQGATCITF”, the “soluble on expression in E. coli” value is given as “soluble”.
Turning to “MNQLTSSFIQNLAEDNIYKLPPHSIEAEQSVLGGLMLDNQAWDKVADIIIESDFYRQDHQLIYQHISRLIEQNKPADVITVAESLENAAQLQHAGGLAYIGAIAQNTPSAANIRRYAEIVRERSIMRKL”, the “soluble on expression in E. coli” value is on record as “not soluble”.
Then “MNQSDVLSNSMKQATINNEAHVIIDDIDTAHKELDILQQEVDKVIFGQNHVIEYALTSILAGGHALLVGVPGLAKTRLVETLGIVLGLDEKRIQFTPDLMPSDIIGSEIMDSDKSGKRSFRYLQGPIFTQLLMADEINRASPRTQSALLQAMQEYHVTVAGTRYDLPQPFHVLATQNPLEQEGTYPLPEAQLDRFLMQIDIDYPDLTTERRIILDTTGGKNQNAKPVLSAKTLQKIQKIVRKMPISENVVEAILKLVRSARPHKENSLANTYVAWGPGPRASQALSLCARARALYHGRLSPSLDDIATLACPVLQHRMALNFSARAENITIKDIIDNLVKDAL”, with “not soluble”; and “MNRISTSSVNSSFNYTAPTEEAQNRFASAPDNSPLVVTTTSIAQASEGLQRPGATLSMQAQRLRQLMGSPSEQCRRDTMLAKAFDAQRLNINTQAGSSNSPHLNALNTLQQRHFKPAAGGLEIPVTSNSLLGGGRQVYQIGSSSRELSHRPVNDQDRAPFRALERLHAELFRGGPIEFVPRGSNVLASNVRDVDMDEFDVINSKDGCQGIGTTGLGPCIAVCARGMDREGLPVLGVYHHSGIGSPEDTMATLDQAMRDKGALQIKYSLVGGMIMPKEEEAGSYDDEQSFLALKGSYSIEGARLHVSEGEEDVHTGEDNSVNVLLMPDRVLYGRDTLYC”, with “not soluble”; and “MNRLHRWNWLVLSAALVTLPFTTPTQAAGVSVSQGSSASLSQAELEQMLAPIALYPDSLLSHILIASTYPLELVQAQRWLEDHPKLSVEQVMSRTEDKGWDPSVKALMAFPNVLQKMSEDLDWTQRLGEAFLANEGQVMDGIQSLRQQADKANSLANMDNMAVTRANNQIIIEPVRREVVYVPYYDPRVVYGTWRWGVAYPPVYWQFGGYVGNPYRPSHSYFYWSPGIHISFNYFFSSFHWHRHKVVVIDHHHSHHYRPRERYSVSHGAQPWKHKPEHRRGVAYHHPVVKERYYSDSKYRGRDSHSSGSGQHFTSQYAKSREHQDTRDNRDNQRDDKRHDKDRGNQYSRERTPNLQHTQAELKERRATPMDSSQTHRENYQREHRQKERNDNGRHDNQVRQNQAKTMREQTNDTWQRQYQQREYQSSDQQPRHVETRAQPQRHEARPEVRRPEPQRIEQPRQAQPRQREEVRTRPSESRQHTQCGA”, with “not soluble”.
Turning to “MNRRDFIKAASGGALLLGAAPSVSHAAAENRPPIPGSLGMLYDSTLCVGCQACVTKCQDINFPARNPEGEQTWSNNDKLSPYTNNIIQVWRSGTGVNKDQEENGYAYIKKQCMHCVDPNCVSVCPVSALKKDPKTGIVHYDKDVCTGCRYCMVACPYNVPKYDYNNPFGALHKCELCNQKGVERLDKGGLPGCVEVCPAGAVIFGTREELMAEAKKRLALKPGSEYHYPRQTLKTDDTYLHTVPKYYPHLYGEKEGGGTQVLVLTGVPYEDLDLPKLDDLSTGARSEHVQHTLYKGMILPLAALAGLTVLVRRNSKNDHHDGGDDHES”, the “soluble on expression in E. coli” value is on record as “not soluble”.
For “MNRRLELYYTRQLLVISKYCQDQTKEIVLPTVGQNIGDSWITDIFVKLREKLVKYTTQVSRPLATKVVQDSQKEVDAQIAEHTKSIIGVDLTPFYRASDIQDVVDTNIAANVALIKSIPNQYVDKLEALVMNAFQTGQTNEDLAKAIAQLGQSTDSRARLIAADQMGKVNGQINKARQLSMGVETYVWQTAKDERVRKDHQHKQGKTFRWDDPPTGGHPGEPIRCRCTALPNYEDILVD”, the “soluble on expression in E. coli” value is given as “not soluble”.
Turning to “MNSEQADILDLLSGHTDDTTIERLAFECLLTNMTDDRVVSLMNILGWQGDFNCFAIGGVPSASLASTSLAIRKAVRDLGGEHVVIGTYGTFLLALACQMGAVTPEVTCTAVMPAFSEDEPLYLSPVRSGVAGASHALRETMFSLQAAPALSTPSRPLRADELLPERALLGDDYAREELYRNVYQVLRGENPDDPTYLTVSTFLKYGSSLENTAKELNVHPNTVRYRLKRAAETTGWDATDPRDAYVLTTALAIGRMRDR”, the “soluble on expression in E. coli” value is “soluble”.
Then “MNSILICGGAGYIGSHAVKKLVDEGLSVVVVDNLQTGHEDAITEGAKFYNGDLRDKAFLRDVFTQENIEAVMHFAADSLVGVSMEKPLQYYNNNVYGALCLLEVMDEFKVDKFIFSSTAATYGEVDVDLITEETMTNPTNTYGETKLAIEKMLHWYSQASNLRYKIFRYFNVAGATPNGIIGEDHRPETHLIPLVLQVALGQREKIMMFGDDYNTPDGTCIRDYIHVEDLVAAHFLGLKDLQNGGESDFYNLGNGNGFSVKEIVDAVREVTNHEIPAEVAPRRAGDPARLVASSQKAKEKLGWDPRYVNVKTIIEHAWNWHQKQPNGYEK”, with “soluble”; and “MNSIRSSPAIGENRTVYIGSYDGKLYAFNPDGTLKWSYTTGNQITGSATIGADGTICIGSYDRRLYTINPDGTLKWSYTTGNQIFSSAAIGEDGTIYVGSRDNKLYALNPDGTLKWSYTTGNQIFSSAAIGEDLEHHHHHH”, with “not soluble”.
In the case of “MNSPLDVKDLIDLGRDPVVVFNPPSIGTPDRIERYHAALEWLIGRERPFVLVTRADGDEASESHEDRKSRAVWFKNNLMALAQVCRGFVYVEQDEARRAAWQVRAEGMAKTFPVPMIIAGDMEAAITQALDLVKASRDPAPGGSPHA”, the “soluble on expression in E. coli” value is “not soluble”.
As to “MNSRQQSILQMVVDKGQMSVAELAKITGVSEVTIRQDLNTLEKQSYLRRAHGFAVSLESDDVETRMMTNYTLKRRLAEFAASLVSPGESVFIENGSSNALLARTLAEQKDVTIITVSSYIAHLLKETPCEVILLGGIYQKKSESMVGPLTRQFIHQVHFSKAFIGIDGWQADTGFTGRDMMRSDVVNAVLEKGSEAIVLTDSSKFGCVHPYPLGPLSRFHRVITDSKISASDQMQLEHAGLLVNVIGSSVLEHHHHHH”, the “soluble on expression in E. coli” value is reported as “soluble”.
As to “MNSSSTLQKLLDRRGQAANGNSATQAVQWQEGMNLTLHVNGDSLTMLAEIINLRADPQDDILLRKLLAHAFPGLRLRRGALTINPDENTLVYSYEHDFLALDKTRFENLLANFAETTQELRNTAQRLR”, the “soluble on expression in E. coli” value is given as “not soluble”.
As to “MNSYVKWIFVVLLICSLTAFVEKDKPTGGLSEGDVAPDFKIESASNGQPAFKLGNLKGKYVLLSFWASYDAQSRMQNVSLSNVLRSSRNVEMVSVSFDEYQSIFKETVRKDQIVTPTCFVETEGEDSRLFKKYRLNRGFTNYLLDGNGVIIAKNISAADLSAYVSEIG”, the “soluble on expression in E. coli” value is listed as “not soluble”.
For “MNTIPLHTILKLMAHPERMAILIQLLDSERNIAELAKSLSLPATAVSNHLNRLRVEGLVDFTRYHRIIEYRLVSEEAAAILHTVRDLENKRVA”, the “soluble on expression in E. coli” value was “not soluble”.
With “MNTLLLDKGEQQVHLNLKYANRHGLIAGATGTGKTVSLMSLAEGFSRQGVPVFITDIKGDISGLGVAGTPNDKLLQRAAEIGVEGYQTEANPVVFWDLAGIQGHPLRTTVSEMGPTLLGRILELNDTQSSILDIVFQLADDQGLLLLDLDDLRAMLNLVADERKDISAKYGLISAQSLAAIQRSVLGLERDGGKDFFGEPALQLEDLMRTNLQGRGIINLLAANKLILTPNLYSSFLLWLLSELFENLPEVGDLDKPKLVFFIDEAHLLFEGCPASLLKRIEQIMRLIRSKGVGVYFCSQFPDDIPNEILGQLGNRIQHALRAYTPRDQKAVKTAAETFVSNPKLVVSEVISQLAVGEALVSTLAEKGVPTMVERTLIAPPRCRMGPANPEELTAIRALSPIGGKYDTLINRESAYERLNQRHTDETNGVNTAQPAANEAEQGWLSELIFGNKRRQGLAETLSKQAARTVGNQLGKQILRGLLGGILGKSTRR”, the “soluble on expression in E. coli” value is recorded as “not soluble”.
The value for “MNTLSSLLLALQQADSFFPGGAVAWSWGLETLVADGRLGAGERVTARRRQRAVRLDRSAAVRGFVEGQLRHRWHSFDRVFLLAAWNAADDVSALTNLDAQIEALTLAKELRQGSRRVGQALLGVHVALGTPGAAAYQQQVRAGNTPGHLPVLQGLLWNRLGMHREHCQLAAAHGLCTGLVSAAVRLGVMGHIDAQRVLTDIQPLITELLALEPPEPEDACGFTPMAEIAVMRHETQDLRLFANLEHHHHHH” was “soluble”; that for “MNTNMVASELGVSAKTVQRWVKQLNLPAERNELGHYSFTAEDVKVLKSVQKQISEGTAIQDIHLPKSAKKRTGFLVQKTSSDTERRIEQLEQKLDTLLQQRQDESELMARMSELERQLKQKADEGVSYQLLQHRREIDDILADLQSLTSQMKEFTAHSIPETAAASEKTKTRKKPLLSLFKFQTLEHHHHHH” was “not soluble”.
As for “MNTNVTTNKSVQAAKNTGRVKPQKLADIILAQLEGMIIEGSLQPGEKLLPERELALQFEVSRPSLREAIQKLEAKGLVTRKQGGGTFVCNNLLSGFSDPLFELMSNNNESQFDLLEFRHGIEGMASYYAAMRGTPADFEQIQAKHNEIGNSQLEDDFRGEAEAVVEFHLAICAASHNAVILQLARSMSSLLADNIAQNLTVLAKRPDIFSKITDYRKRLLDAILSGQPQKAWGASHRHLAFIEEVLLKSTQENSRMERSMRRM”, the “soluble on expression in E. coli” value was “not soluble”.
